Measurements as given in US12281147.

Experiments:
[1] = biological target: human IL-21R (human) (UniProt Q9HBE5); test: AlphaSeq yeast mating assay, pH 5 media
[2] = biological target: human IL-21R (human) (UniProt Q9HBE5); test: AlphaSeq yeast mating assay, unbuffered media
[3] = biological target: human IL-21R (human) (UniProt Q9HBE5); test: AlphaSeq yeast mating assay, pH 6 media
[4] = biological target: human IL-21R (human) (UniProt Q9HBE5); test: AlphaSeq yeast mating assay, pH 7 media

Kd [1] [µM]	Kd [2] [µM]	Kd [3] [µM]	Kd [4] [nM]	Substance
0.025	2.7			IL-21_D66R (from UniProt Q9HBE4 32-152) (ligand)
0.046	2.4			IL-21_E93T (from UniProt Q9HBE4 32-152) (ligand)
100	270	6.9		IL-21_F76E (from UniProt Q9HBE4 32-152) (ligand)
75	340			IL-21_F76T (from UniProt Q9HBE4 32-152) (ligand)
52	170	2.7		IL-21_F79D (from UniProt Q9HBE4 32-152) (ligand)
1.5	110	0.55		IL-21_I37E (from UniProt Q9HBE4 32-152) (ligand)
82	170			IL-21_I37G (from UniProt Q9HBE4 32-152) (ligand)
0.058	1.5	0.02		IL-21_I43L (from UniProt Q9HBE4 32-152) (ligand)
53	150	2		IL-21_I95H (from UniProt Q9HBE4 32-152) (ligand)
	260		240	IL-21_I95K (from UniProt Q9HBE4 32-152) (ligand)
10	1	0.55		IL-21_K106N (from UniProt Q9HBE4 32-152) (ligand)
	250		12000	IL-21_L42K (from UniProt Q9HBE4 32-152) (ligand)
600	540			IL-21_L49E (from UniProt Q9HBE4 32-152) (ligand)
	100	6.9		IL-21_L56T (from UniProt Q9HBE4 32-152) (ligand)
240	590	92		IL-21_L103E (from UniProt Q9HBE4 32-152) (ligand)
	800	76		IL-21_M39D (from UniProt Q9HBE4 32-152) (ligand)

Kd [1] [µM]	Kd [2] [µM]	Kd [3] [µM]	Kd [4] [nM]	Substance
150	330			IL-21_M39E (from UniProt Q9HBE4 32-152) (ligand)
	2.5		35	IL-21_M39I (from UniProt Q9HBE4 32-152) (ligand)
	340	170		IL-21_M39R (from UniProt Q9HBE4 32-152) (ligand)
	2.5	0.062		IL-21_N51V (from UniProt Q9HBE4 32-152) (ligand)
	1.4		240	IL-21_P108D (from UniProt Q9HBE4 32-152) (ligand)
	2.8		550	IL-21_P108E (from UniProt Q9HBE4 32-152) (ligand)
580	660			IL-21_Q80D (from UniProt Q9HBE4 32-152) (ligand)
1.4	2.7			IL-21_R34P (from UniProt Q9HBE4 32-152) (ligand)
	110	8.4		IL-21_R38E (from UniProt Q9HBE4 32-152) (ligand)
	250		7000	IL-21_R38K (from UniProt Q9HBE4 32-152) (ligand)
	270	12		IL-21_R38Q (from UniProt Q9HBE4 32-152) (ligand)
0.17	85	0.026		IL-21_S74H (from UniProt Q9HBE4 32-152) (ligand)
	2.6		41	IL-21_S142I (from UniProt Q9HBE4 32-152) (ligand)
	270	12		IL-21_V46D (from UniProt Q9HBE4 32-152) (ligand)
270	270	27		IL-21_V53P (from UniProt Q9HBE4 32-152) (ligand)
	340	2.8		IL-21_Y52K (from UniProt Q9HBE4 32-152) (ligand)
